Laboratory results from article PMC11118528 (bioRxiv, 2024).
Positions count from the first letter of the chain named. Numbers in names are those of the source.

B1: Rvb1 (enzyme)
chain: MVAISEVKENPGVNSSNSGAVTRTAAHTHIKGLGLDESGVAKRVEGGFVGQIEAREACGVIVDLIKAKKMSGRAILLAGGPSTGKTALALAISQELGPKVPFCPLVGSELYSVEVKKTETLMENFRRAIGLRIKETKEVYEGEVTELTPEDAENPLGGYGKTISHVIVGLKSAKGTKTLRLDPTIYESIQREKVSIGDVIYIEANTGAVKRVGRSDAYATEFDLETEEYVPLPKGEVHKKKEIVQDVTLHDLDVANARPQGGQDVISMMGQLLKPKKTEITEKLRQEVNKVVAKYIDQGVAELIPGVLFIDEVNMLDIEIFTYLNKALESNIAPVVVLASNRGMTTVRGTEDVISPHGVPPDLIDRLLIVRTLPYDKDEIRTIIERRATVERLQVESSALDLLATMGTETSLRYALQLLAPCGILAQTSNRKEIVVNDVNEAKLLFLDAKRSTKILETSANYL
B2: Rvb1-R366A (enzyme)
chain: B1 chain with R366A

Legend:
Rvb2-R350A = Rvb2-R350A (S. cerevisiae, UniProt Q12464 1-471, R350A); assay: SEC
Rvb2 = Rvb2 (S. cerevisiae, UniProt Q12464 1-471); assay: SEC
Rvb2, sequence (Q12464 whole entry): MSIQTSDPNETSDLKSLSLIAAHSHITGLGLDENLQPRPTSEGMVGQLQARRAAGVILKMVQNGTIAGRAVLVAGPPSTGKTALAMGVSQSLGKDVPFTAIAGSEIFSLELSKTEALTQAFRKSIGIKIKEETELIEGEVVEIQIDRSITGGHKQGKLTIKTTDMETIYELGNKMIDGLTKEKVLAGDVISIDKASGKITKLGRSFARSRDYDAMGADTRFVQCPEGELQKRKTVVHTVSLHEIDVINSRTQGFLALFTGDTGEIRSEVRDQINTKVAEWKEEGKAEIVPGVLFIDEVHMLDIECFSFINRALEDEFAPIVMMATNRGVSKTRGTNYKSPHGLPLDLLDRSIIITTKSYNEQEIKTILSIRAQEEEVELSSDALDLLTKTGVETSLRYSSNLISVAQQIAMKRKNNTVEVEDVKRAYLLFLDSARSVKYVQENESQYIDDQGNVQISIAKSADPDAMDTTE

Rvb2-R350A, sequence (Q12464 whole entry R350A): as the sequence (Q12464 whole entry) above, with R350A counted along it

Binder	binding result (Rvb2-R350A)	binding result (Rvb2)
B1	binds	binds
B2	binds	binds
